# Assays:
# [1] = molecular target: C6B/CV2 one-armed SEEDbody; experiment: BLI; C6B oaSEEDbody on anti-Fab tips; association with 100 nM CEACAM6 at pH 7.4, dissociation at pH 5.0
# [2] = molecular target: C6B/IGKV3-15*01 one-armed SEEDbody; experiment: as above
# [3] = molecular target: C6B/CV2 one-armed SEEDbody; experiment: BLI; C6B oaSEEDbody on anti-Fab tips; association with 100 nM CEACAM6 at pH 7.4, dissociation at pH 6.0
# [4] = molecular target: C6B/IGKV3-15*01 one-armed SEEDbody; experiment: as above
# [5] = molecular target: C6B/CV2 one-armed SEEDbody; experiment: BLI; C6B oaSEEDbody on anti-Fab tips; association with 100 nM CEACAM6 at pH 7.4, dissociation at pH 7.4; 1:1 model
# [6] = molecular target: C6B/IGKV3-15*01 one-armed SEEDbody; experiment: as above
# [7] = molecular target: C5A + CV1 one-armed SEEDbody; experiment: BLI; oaSEEDbody on anti-human Fc (AHC) tips; association with 100 nM CEACAM5 at pH 7.4, dissociation at pH 7.4 in kinetic buffer (PBS, 0.1% Tween 20, 1% BSA); 30 C; 1:1 model
# [8] = molecular target: C5A + CV2 one-armed SEEDbody; experiment: as above
# [9] = molecular target: C5A + CV3 one-armed SEEDbody; experiment: as above
# [10] = molecular target: C5A + IGKV3-15*01 one-armed SEEDbody; experiment: as above
# [11] = molecular target: C5A + K39 one-armed SEEDbody; experiment: as above
# [12] = molecular target: C5A + K40 one-armed SEEDbody; experiment: as above
# Sequence of CEACAM6 (P40199 35-320): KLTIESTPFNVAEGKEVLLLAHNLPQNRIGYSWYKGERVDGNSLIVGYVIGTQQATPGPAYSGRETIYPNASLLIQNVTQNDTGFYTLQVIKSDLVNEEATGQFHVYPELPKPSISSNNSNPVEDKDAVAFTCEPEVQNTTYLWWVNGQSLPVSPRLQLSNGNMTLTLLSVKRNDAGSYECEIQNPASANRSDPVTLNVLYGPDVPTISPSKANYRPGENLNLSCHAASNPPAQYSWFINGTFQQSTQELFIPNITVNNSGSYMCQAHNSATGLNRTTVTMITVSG
koff [1] [s⁻¹],koff [2] [s⁻¹],koff [3] [s⁻¹],koff [4] [s⁻¹],Kd [5] [nM],koff [5] [s⁻¹],Kd [6] [nM],koff [6] [s⁻¹],Kd [7] [nM],Kd [8] [nM],Kd [9] [nM],Kd [10] [nM],Kd [11] [nM],Kd [12] [nM],Substance
0.000768,0.000361,0.000142,0.00019,7.73,0.000262,8.77,0.000158,,,,,,,CEACAM6 (from UniProt P40199 35-320) (natural protein)
,,,,,,,,4.11,4.14,2.55,0.9,4.16,3.12,recombinant human His-tagged CEACAM5 (from UniProt P06731 35-685) (natural protein)

# Reference: publication PMC6697062
